From patent US20250154238A1 (YALE UNIVERSITY, published 2025)

Legend:
[1] = target: T1, recombinant human epiregulin containing the epidermal growth factor (EGF) domain (R&D Biosciences Cat … (human, UniProt O14944 63-108)); assay: cell-based or functional assay
[2] = target: T1, recombinant human epiregulin containing …; assay: cell-based or functional assay; remark: listed apart in the source
[3] = target: T1, recombinant human epiregulin containing …; assay: cell-based or functional assay; remark: listed apart in the source
[4] = target: T1, recombinant human epiregulin containing …; assay: Octet bio-layer interferometry, recombinant human epiregulin immobilized

T1 sequence (O14944 63-108 limits assumed): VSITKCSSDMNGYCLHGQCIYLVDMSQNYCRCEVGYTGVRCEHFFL

B1: humanized epiregulin neutralizing antibody 1 (hEreg NAb1) (antibody, V domains shown)
VH: HLQLQESGPGLVKSSETLSLTCSVSGGSISSSGYYWGWIRQPPGKGLEWIGSFYYSGNTYYNPSLKSRVTISADTSKSQYSLKLSSVTAADTAVYYCARHPFNWNDHYHYMDVWGNGTTVTVSS
VL: DIQMTQSPSSLSASVGDSVTITCRASQSISNYLNWYQKKPGKAPKVLIYAASSLQSGVPSRFSGSGSGTDFTLTISSLQPEDFATYYCQQSYITSITFGQGTRLEIK
notes: The clone comes from hybridomas of Alloy mice (fully human variable regions) and represents wells M3, M4 and M5; also called humanized epiregulin antibody; M3
[1]
  IC50 of inhibition of epiregulin-induced HFF proliferation (rhEreg 100 ng/ml): 0.1 to 0.3 µg/mL
[2]
  IC50 (nM), calculated from HFF proliferation assays: 1.8 nM
[3]
  IC50 of inhibition of HFF proliferation induced by 100 ng/ml rhEreg (GFP fluorescence, CyQUANT, day 3): 0.27 µg/mL
[4]
  Kd: 0.038 nM
